{"source": "paper PMC12412624", "about": "“Engineered Cas12j‐8 is a Versatile Platform for Multiplexed Genome Modulation in Mammalian Cells”", "key": {"[1]": {"system": "T1, dCas12j-8 E258R+D313R+D527R E258R;D313R;D527R;D369A;E567A;D658A (bacteriophage (metagenome))", "T1 sequence": "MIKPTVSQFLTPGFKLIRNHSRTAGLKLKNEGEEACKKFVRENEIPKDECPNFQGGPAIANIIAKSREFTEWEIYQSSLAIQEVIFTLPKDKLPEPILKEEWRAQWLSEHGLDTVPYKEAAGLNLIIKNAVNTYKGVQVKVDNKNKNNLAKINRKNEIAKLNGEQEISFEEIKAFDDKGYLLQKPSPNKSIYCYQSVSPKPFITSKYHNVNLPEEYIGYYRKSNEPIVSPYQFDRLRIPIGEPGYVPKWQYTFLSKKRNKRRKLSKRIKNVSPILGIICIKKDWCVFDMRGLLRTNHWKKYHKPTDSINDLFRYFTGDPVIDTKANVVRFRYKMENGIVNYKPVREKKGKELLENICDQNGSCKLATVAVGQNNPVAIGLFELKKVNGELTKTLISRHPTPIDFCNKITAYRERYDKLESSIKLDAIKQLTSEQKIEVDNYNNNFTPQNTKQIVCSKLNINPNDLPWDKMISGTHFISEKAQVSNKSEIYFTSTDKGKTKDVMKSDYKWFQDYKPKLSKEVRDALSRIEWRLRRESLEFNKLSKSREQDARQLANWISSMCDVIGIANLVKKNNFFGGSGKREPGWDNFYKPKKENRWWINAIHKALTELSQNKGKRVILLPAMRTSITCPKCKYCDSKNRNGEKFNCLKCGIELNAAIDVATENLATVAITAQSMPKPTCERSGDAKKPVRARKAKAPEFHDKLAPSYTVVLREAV", "conditions": "HEK293T cells; panel 1e (compare within a panel only); scale: mean GFP / mean GFP of wild type, printed, no background subtraction"}, "[2]": {"system": "T2, dCas12j-8 E258R+D313R+D495R+D527R E258R;D313R;D495R;D527R;D369A;E567A;D658A (bacteriophage (metagenome))", "T2 sequence": "T1 sequence with D495R", "conditions": "HEK293T cells; panel 1e (compare within a panel only); scale: mean GFP / mean GFP of wild type, printed, no background subtraction"}, "[3]": {"system": "T3, dCas12j-8 E258R+D142R E258R;D142R;D369A;E567A;D658A (bacteriophage (metagenome))", "T3 sequence": "T1 sequence with D142R, R313D, R527D", "conditions": "HEK293T cells; panel 1d (compare within a panel only); scale: mean GFP / mean GFP of wild type, printed, no background subtraction"}, "[4]": {"system": "T4, dCas12j-8 E258R+D313R E258R;D313R;D369A;E567A;D658A (bacteriophage (metagenome))", "T4 sequence": "T1 sequence with R527D", "conditions": "HEK293T cells; panel 1d (compare within a panel only); scale: mean GFP / mean GFP of wild type, printed, no background subtraction"}}, "note": "Changes are numbered by the printed parent chain.", "data": [{"sequence": "CUUUCAAGACUAAUAGAUUGCUCCUUACGAGGAGACACUCCCUAUCAGUGAUAGAG / TTNACTCCCTATCAGTGATAGAG / CTCTATCACTGATAGGGAGTNAA [TetO]", "values": [{"measurement": "binding signal", "setting": "[1]", "value": 5.09}, {"measurement": "binding signal", "setting": "[2]", "value": 5.3}, {"measurement": "binding signal", "setting": "[3]", "value": 1.87}, {"measurement": "binding signal", "setting": "[4]", "value": 3.3}]}]}
